Source: paper PMC5397183
Where two headings read alike, the source gives them in different places.

B1: 21OH fadR promoter (dsDNA)
DNA 1: GATGAATGAATACTCATTCAT
DNA 2: CATGAATGAGTATTCATTCAT

Assays:
[1] = target: Bacillus halodurans FadR (native) (Bacillus halodurans); assay: crystal structure
[2] = target: Bacillus halodurans FadR (native) (Bacillus halodurans); assay: crystal structure; remark: listed apart in the source
[3] = target: T1, FadR WT (native, crystal) (Bacillus halodurans, UniProt Q9K8A4 1-195); assay: X-ray crystallography
T1 sequence: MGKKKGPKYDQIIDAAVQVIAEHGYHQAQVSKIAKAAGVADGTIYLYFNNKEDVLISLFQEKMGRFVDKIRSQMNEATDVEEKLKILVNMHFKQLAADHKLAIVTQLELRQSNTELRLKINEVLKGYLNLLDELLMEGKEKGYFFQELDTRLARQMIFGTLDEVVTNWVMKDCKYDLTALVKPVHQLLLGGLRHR

Molecule	stoichiometry N [1]	stoichiometry N [2]	binding result [3]
Bacillus halodurans FadR (native) (natural protein)	2	2	
B1			binds
